Experimental data taken from paper PMC6037785, “Microtubule minus-end aster organization is driven by processive HSET-tubulin clusters” (Nature Communications, 2018).

B1: EGFP-HSET (full-length HSET/KIFC1, human kinesin-14, with N-terminal 6x His tag and EGFP) (natural protein, UniProt Q9BW19 1-673, looked up)
chain: MDPQRSPLLEVKGNIELKRPLIKAPSQLPLSGSRLKRRPDQMEDGLEPEKKRTRGLGATTKITTSHPRVPSLTTVPQTQGQTTAQKVSKKTGPRCSTAIATGLKNQKPVPAVPVQKSGTSGVPPMAGGKKPSKRPAWDLKGQLCDLNAELKRCRERTQTLDQENQQLQDQLRDAQQQVKALGTERTTLEGHLAKVQAQAEQGQQELKNLRACVLELEERLSTQEGLVQELQKKQVELQEERRGLMSQLEEKERRLQTSEAALSSSQAEVASLRQETVAQAALLTEREERLHGLEMERRRLHNQLQELKGNIRVFCRVRPVLPGEPTPPPGLLLFPSGPGGPSDPPTRLSLSRSDERRGTLSGAPAPPTRHDFSFDRVFPPGSGQDEVFEEIAMLVQSALDGYPVCIFAYGQTGSGKTFTMEGGPGGDPQLEGLIPRALRHLFSVAQELSGQGWTYSFVASYVEIYNETVRDLLATGTRKGQGGECEIRRAGPGSEELTVTNARYVPVSCEKEVDALLHLARQNRAVARTAQNERSSRSHSVFQLQISGEHSSRGLQCGAPLSLVDLAGSERLDPGLALGPGERERLRETQAINSSLSTLGLVIMALSNKESHVPYRNSKLTYLLQNSLGGSAKMLMFVNISPLEENVSESLNSLRFASKVNQCVIGTAQANRK
notes: HSET/KIFC1, Homo sapiens kinesin-14, amino acids 1-673; No tag cleavage is described; also called full-length EGFP-HSET; pFASTBAC-HTa-EGFP-HSET; source: Sf9 cells (baculovirus), purified (Ni-NTA, size exclusion chromatography); not shown: His6, N-terminal, kept; EGFP, N-terminal, kept
B2: EGFP-HSETΔTail (domain or fragment, human, UniProt Q9BW19 139-673, looked up)
chain: LKGQLCDLNAELKRCRERTQTLDQENQQLQDQLRDAQQQVKALGTERTTLEGHLAKVQAQAEQGQQELKNLRACVLELEERLSTQEGLVQELQKKQVELQEERRGLMSQLEEKERRLQTSEAALSSSQAEVASLRQETVAQAALLTEREERLHGLEMERRRLHNQLQELKGNIRVFCRVRPVLPGEPTPPPGLLLFPSGPGGPSDPPTRLSLSRSDERRGTLSGAPAPPTRHDFSFDRVFPPGSGQDEVFEEIAMLVQSALDGYPVCIFAYGQTGSGKTFTMEGGPGGDPQLEGLIPRALRHLFSVAQELSGQGWTYSFVASYVEIYNETVRDLLATGTRKGQGGECEIRRAGPGSEELTVTNARYVPVSCEKEVDALLHLARQNRAVARTAQNERSSRSHSVFQLQISGEHSSRGLQCGAPLSLVDLAGSERLDPGLALGPGERERLRETQAINSSLSTLGLVIMALSNKESHVPYRNSKLTYLLQNSLGGSAKMLMFVNISPLEENVSESLNSLRFASKVNQCVIGTAQANRK
notes: HSET/KIFC1, Homo sapiens kinesin-14, amino acids 139-673 (stalk and motor, N-terminal tail deleted); also called pFASTBAC-HTa-EGFP-HSETΔTail; tailless HSET; source: Sf9 cells (baculovirus), purified (Ni-NTA, size exclusion chromatography); not shown: His6, N-terminal, kept; EGFP, N-terminal, kept
B3: EGFP-HSET-DoubleTail (other, human)
chain: MDPQRSPLLEVKGNIELKRPLIKAPSQLPLSGSRLKRRPDQMEDGLEPEKKRTRGLGATTKITTSHPRVPSLTTVPQTQGQTTAQKVSKKTGPRCSTAIATGLKNQKPVPAVPVQKSGTSGVPPMAGGKKPSKRPAWDLKGQLCDLNAELKRCRERTQTLDQENQQLQDQLRDAQQQVKALGTERTTLEGHLAKVQAQAEQGQQELKNLRACVLELEERLSTQEGLVQELQKKQVELQEERRGLMSQLEEKERRLQTSEAALSSSQAEVASLRQETVAQAALLTEREERLHGLEMERRRLHNQLQELGGSGGSMDPQRSPLLEVKGNIELKRPLIKAPSQLPLSGSRLKRRPDQMEDGLEPEKKRTRGLGATTKITTSHPRVPSLTTVPQTQGQTTAQKVSKKTGPRCSTAIATGLKNQKPVPAVPVQKSGTSGVPPMAGGKKPSKRPAW
notes: HSET/KIFC1, Homo sapiens kinesin-14, amino acids 1-307 (tail and stalk); flexible amino acid linker; HSET/KIFC1, Homo sapiens kinesin-14, amino acids 1-137 (second copy of the N-terminal tail in place of the motor domain); also called pET15b-HTa-EGFP-HSETDoubleTail; source: E. coli BL21DE3, purified (Ni-NTA, size exclusion chromatography); not shown: His6, N-terminal, kept; EGFP, N-terminal, kept
B4: EGFP-HSETΔMotor (domain or fragment, human, UniProt Q9BW19 1-304, looked up)
chain: MDPQRSPLLEVKGNIELKRPLIKAPSQLPLSGSRLKRRPDQMEDGLEPEKKRTRGLGATTKITTSHPRVPSLTTVPQTQGQTTAQKVSKKTGPRCSTAIATGLKNQKPVPAVPVQKSGTSGVPPMAGGKKPSKRPAWDLKGQLCDLNAELKRCRERTQTLDQENQQLQDQLRDAQQQVKALGTERTTLEGHLAKVQAQAEQGQQELKNLRACVLELEERLSTQEGLVQELQKKQVELQEERRGLMSQLEEKERRLQTSEAALSSSQAEVASLRQETVAQAALLTEREERLHGLEMERRRLHNQL
notes: HSET/KIFC1, Homo sapiens kinesin-14, amino acids 1-304 (tail and stalk, motor domain deleted); also called pET15b-HTa-EGFP-HSETΔMotor; source: E. coli BL21DE3, purified (Ni-NTA, size exclusion chromatography); not shown: His6, N-terminal, kept; EGFP, N-terminal, kept

What was measured:
[1] = target: unlabeled HSET (full-length HSET with N-terminal 6x His tag, no EGFP) (human) (UniProt Q9BW19); assay: fluorescence intensity analysis of moving particles (TIRF); first frame of moving EGFP-HSET (with unlabeled tubulin) or moving Cy5-tubulin (10 nM, with 10 nM unlabeled HSET) on GMPCPP-MTs compared with single molecules adhered to glass; BRB80 + 50 mM KCl with 0.5 mg/mL casein
[2] = target: the molecule itself; assay: single-molecule stepwise photobleaching (TIRF); single EGFP-tagged molecules adhered to a glass surface; photobleaching traces compared with EGFP-XMCAK, a known dimer; monomers to dimer

Molecule	brightness of moving Cy5-tubulin particles (with HSET) over single Cy5-tubulin molecules [1]	stoichiometry N [2]
Cy5-tubulin (bovine brain tubulin labeled with NHS-Cy5, 100% labeled) (from UniProt Q6B856 1-445) (complex)	11.8 fold	–
B1	–	2
B2	–	2
B3	–	2
B4	–	2
